Laboratory results from article PMC11602657, “Nap1 and Kap114 co-chaperone H2A-H2B and facilitate targeted histone release in the nucleus” (The Journal of Cell Biology, 2024).
Numbering of substitutions follows the chain as printed. Names and notes keep the numbering of the source. Values joined by “and” are separate entries in the source; they are usually repeats but may differ in a detail not shown here. Identical values can stand only once.

Columns and labels:
[1] = biological target: T1, Kap114 (S. cerevisiae, UniProt P53067 1-1004); experiment: SEC-MALS; proteins alone or binary mixtures at the indicated molar ratios to 80 µM Kap114; Assay buffer without glycerol; Nap1 counted as dimer; details: both partners purified
T1 construct: also called Sc Kap114; source: E. coli, expressed as GST-Kap114, purified (Glutathione Sepharose 4B, on-column TEV cleavage, SEC)
T1 sequence: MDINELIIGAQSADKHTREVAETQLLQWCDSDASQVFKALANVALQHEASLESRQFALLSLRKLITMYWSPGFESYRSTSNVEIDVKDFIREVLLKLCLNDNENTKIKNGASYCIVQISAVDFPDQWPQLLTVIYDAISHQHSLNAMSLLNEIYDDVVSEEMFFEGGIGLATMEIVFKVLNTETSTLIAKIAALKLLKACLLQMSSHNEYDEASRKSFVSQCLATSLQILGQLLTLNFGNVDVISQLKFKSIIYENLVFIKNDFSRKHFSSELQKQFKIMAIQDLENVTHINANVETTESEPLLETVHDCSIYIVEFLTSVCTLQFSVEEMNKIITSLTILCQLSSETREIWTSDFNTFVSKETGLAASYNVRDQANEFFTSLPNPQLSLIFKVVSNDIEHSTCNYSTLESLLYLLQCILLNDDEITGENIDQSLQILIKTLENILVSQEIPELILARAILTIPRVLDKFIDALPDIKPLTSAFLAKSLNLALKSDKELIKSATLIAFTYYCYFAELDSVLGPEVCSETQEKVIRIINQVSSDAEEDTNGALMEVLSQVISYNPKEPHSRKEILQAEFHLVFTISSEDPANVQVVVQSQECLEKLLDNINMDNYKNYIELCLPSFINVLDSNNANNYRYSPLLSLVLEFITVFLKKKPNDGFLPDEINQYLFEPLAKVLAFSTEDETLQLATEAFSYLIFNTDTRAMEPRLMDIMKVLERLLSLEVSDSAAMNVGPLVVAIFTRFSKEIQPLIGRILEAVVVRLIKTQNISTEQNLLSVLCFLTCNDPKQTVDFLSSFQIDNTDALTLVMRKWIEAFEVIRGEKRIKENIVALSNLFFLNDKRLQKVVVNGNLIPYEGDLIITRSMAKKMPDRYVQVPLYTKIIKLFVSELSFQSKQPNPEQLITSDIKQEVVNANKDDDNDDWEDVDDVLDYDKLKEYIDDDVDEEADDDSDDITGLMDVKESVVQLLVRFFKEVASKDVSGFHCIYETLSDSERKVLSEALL

[2] = biological target: the molecule itself; experiment: as above
[3] = biological target: T2, MBP-Kap114 YDAA (Y939A/D942A) (S. cerevisiae, UniProt P53067 1-1004, Y939A | D942A); experiment: pull-down; MBP-Kap114 (WT or mutant; or MBP alone) 1 µM immobilized on amylose resin, equimolar Nap1_(2) ± H2A-H2B (1 or 2 µM) ± Ran^GTP; Assay Buffer (20 mM HEPES pH 7.4, 150 mM NaCl, 2 mM MgCl2, 10% glycerol, 2 mM DTT), 30 min at 4°C; Coomassie-stained SDS-PAGE; details: both partners purified
T2 construct: Kap114, S. cerevisiae, h19loop mutant; source: E. coli BL21 Gold, purified; not shown: MBP, N-terminal, kept
T2 sequence (looked up): T1 sequence with Y939A, D942A

[4] = biological target: T3, MBP-Kap114 DDAA (D928A/D929A) (S. cerevisiae, UniProt P53067 1-1004, D928A | D929A); experiment: as above; details: both partners purified
T3 construct: Kap114, S. cerevisiae, h19loop mutant; source: E. coli BL21 Gold, purified; not shown: MBP, N-terminal, kept
T3 sequence (looked up): T1 sequence with D928A, D929A

stoichiometry N [1]: 1
binding result [3]: binds
binding result [4]: binds
B1: Nap1 FL (C200A, C249A, C272A) (natural protein, S. cerevisiae, UniProt P25293 1-417, looked up)
chain: MSDPIRTKPKSSMQIDNAPTPHNTPASVLNPSYLKNGNPVRAQAQEQDDKIGTINEEDILANQPLLLQSIQDRLGSLVGQDSGYVGGLPKNVKEKLLSLKTLQSELFEVEKEFQVEMFELENKFLQKYKPIWEQRSRIISGQEQPKPEQIAKGQEIVESLNETELLVDEEEKAQNDSEEEQVKGIPSFWLTALENLPIVADTITDRDAEVLEYLQDIGLEYLTDGRPGFKLLFRFDSSANPFFTNDILAKTYFYQKELGYSGDFIYDHAEGAEISWKDNAHNVTVDLEMRKQRNKTTKQVRTIEKITPIESFFNFFDPPKIQNEDQDEELEEDLEERLALDYSIGEQLKDKLIPRAVDWFTGAALEFEFEEDEEEADEDEDEEEDDDHGLEDDDGESAEEQDDFAGRPEQAPECKQS
notes: Nap1 (nucleosome assembly protein 1), S. cerevisiae, full length (FL), with C200A, C249A, C272A for specific labeling on 414C; pHAT4 vector, gift from Sheena D'Arcy; Counted as a dimer (Nap1_(2)) in all molar ratios; alone a mixture of dimers and tetramers; also called Nap1_(2); Nap1_(2) FL; source: E. coli BL21 gold, purified (Ni-NTA, TEV cleavage, HiTrap Q, Superdex S200)
stoichiometry N [2]: 2 and 4
